Numbering of substitutions follows the chain as printed. Like-named read-outs stand apart in the source and are kept apart here.
Legend:
human TL1A (HuTL1A) [1] = target: T1, human TL1A (HuTL1A) (human, UniProt O95150 57-251, limits assumed, biotin-labelled in some assays (site not stated)); assay: DLS, antigen and antibody mixed in equal moles
T1 construct: Expressed in EXPI-293 cells and purified by Ni-NTA (His-tag); Described as a trimeric antigen; also called TL1A antigen; WT
T1 sequence: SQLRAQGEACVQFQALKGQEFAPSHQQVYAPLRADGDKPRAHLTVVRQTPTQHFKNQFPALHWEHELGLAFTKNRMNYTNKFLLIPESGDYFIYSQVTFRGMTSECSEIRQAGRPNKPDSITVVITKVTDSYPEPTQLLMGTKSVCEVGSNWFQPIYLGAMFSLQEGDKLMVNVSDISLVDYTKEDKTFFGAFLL
Experimental: 60 μM antigen and antibody was mixed in equal moles, incubated at room temperature for 30 minutes, and then the molecular size was detected using UNCLE or SEC.

human TL1A (HuTL1A) [2] = target: T1, human TL1A (HuTL1A); assay: cell-based or functional assay
human TL1A (HuTL1A) [3] = target: T1, human TL1A (HuTL1A); assay: BLI (Gator), biotin-HuTL1A on SA probe, pH 7.4; BLI (Gator), pH 7.4
Experimental: The binding kinetics between monoclonal antibodies and antigens was measured using Gator, a label-free biomolecule interaction analyzer based on the principle of biolayer interference (BLI). […] Then a serial dilutions of single-arm M701 antibodies and control antibodies were added. The antibodies interacted with the antigen captured by the SA probe, and the interaction was analyzed by detecting the signal change of the reflection interference spectrum of the probe surface, and finally the binding kinetics constants of the antibodies were calculated. The kinetic constants of antigen and antibodies were measured at pH 7.4 and 5.6 in sodium dihydrogen phosphate-citrate buffer.

human TL1A (HuTL1A) [4] = target: T1, human TL1A (HuTL1A); assay: BLI (Gator), His-tagged TL1A on anti-His probe, pH 7.4
Experimental: (§1) Then a serial dilutions of single-arm M701 antibodies and control antibodies were added.

[5] = target: T2, cynomolgus monkey/rhesus monkey TL1A (cynomolgus monkey/rhesus monkey); assay: as above
T2 construct: also called Cynomolgus/rhesus monkey TL1A
Experimental: as §1

human TL1A (HuTL1A) [6] = target: T1, human TL1A (HuTL1A); assay: ELISA: biotin-HuTL1A on streptavidin plate, antibody diluted at pH 7.4, HRP-anti-human Fc, OD450
Experimental: (§2) Corresponding antibodies were added to specific wells, and the antibodies were diluted with sodium dihydrogen phosphate-citrate buffer at pH 7.4, pH 6.0, pH 5.8, or pH 5.6. Binding assay was carried out at room temperature for 30 minutes. After the incubation, the excess antibodies were removed and the wells were washed by PBST. HRP-anti-Human Fc (Sino Biological) was then added into each well and incubated for 30 minutes to detect the bound antibody. The substrate TMB was finally added to develop color for 5-10 minutes. The color development reaction was terminated with 1M sulfuric acid. OD450 nm was recorded on a microplate reader, and the data were processed and fitted by 4 parameter logistic regression.

human TL1A (HuTL1A) [7] = target: T1, human TL1A (HuTL1A); assay: as above; remark: listed apart in the source
Experimental: as §2

B1: M701-3756 (antibody, human IgG1, kappa, L234A L235A, V domains shown)
VH: ELQLQESGPGLVKPSETLSLTCAVSGLSFTDFYWAWIRQPPGKGLEWIGEINHKGNTSYNPSLKSRVTVSIDTSKNQFSLKLSSVTAADTAVYFCARDFPNYTFDFWGQGTLVTVSS
VL: DIQLTQSPGTLSLSPGERATLSCRASQSVSNHLAWYQQKPGQAPRLLIYGASKRATGIPDRFSGSGSGTDFTLTISRLEPEDFAVYYCQQYADAPLTFGQGTKVEIKR
notes: Fc-engineered IgG1; from the original phage library
Ave Z-dia (nm) of the antigen-antibody complex (human TL1A (HuTL1A) [1]): 19.1 nm
IC50 (read off the curve); SEAP reporter in HEK293T/DR3-NFκB cells with soluble TL1A, OD655 (human TL1A (HuTL1A) [2]): ~1 nM

B2: M701-3876 (antibody, human IgG1, kappa, L234A L235A, V domains shown)
VH: EVQLQESGPGLVKPSETLSLTCAVSGVSYSDYHWAWIRQPPGKGLEWIGDINHKGKTNYNPSLKSRVTISVDTSKNQFSLKLSSVTAADTAVYYCARDYPNFLFDYWGQGTLVTVSS
VL: B1 VL with D1A, L4M, N31S, K53R, D60A, A94S
notes: Fc-engineered IgG1
Ave Z-dia (nm) of the antigen-antibody complex (human TL1A (HuTL1A) [1]): 18.7 nm
IC50 (read off the curve); SEAP reporter in HEK293T/DR3-NFκB cells with soluble TL1A, OD655 (human TL1A (HuTL1A) [2]): ~1 nM

B3: single-arm antibody M701-3952 (antibody, human IgG1, kappa, L234A L235A)
heavy: ELQLQESGPGLVKPSETLSLTCAVSGVSFSDYHWAWIRQPPGKGLEWIGDINHRGHTNYNPSLKSRVTVSIDTSKNQFSLKLSSVTAADTAVYFCARDFPNFIFDYWGQGTLVTVSSASTKGPSVFPLAPSSKSTSGGTAALGCLVKDYFPEPVTVSWNSGALTSGVHTFPAVLQSSGLYSLSSVVTVPSSSLGTQTYICNVNHKPSNTKVDKKVEPKSCDKTHTCPPCPAPEAAGGPSVFLFPPKPKDTLMISRTPEVTCVVVDVSHEDPEVKFNWYVDGVEVHNAKTKPREEQYNSTYRVVSVLTVLHQDWLNGKEYKCKVSNKALGAPIEKTISKAKGQPREPQVYTLPPCREEMTKNQVSLWCLVKGFYPSDIAVEWESNGQPENNYKTTPPVLDSDGSFFLYSKLTVDKSRWQQGNVFSCSVMHEALHNHYTQKSLSLSPG
light: not shown
chain: DKTHTCPPCPAPEAAGGPSVFLFPPKPKDTLMISRTPEVTCVVVDVSHEDPEVKFNWYVDGVEVHNAKTKPREEQYNSTYRVVSVLTVLHQDWLNGKEYKCKVSNKALGAPIEKTISKAKGQPREPQVCTLPPSREEMTKNQVSLSCAVKGFYPSDIAVEWESNGQPENNYKTTPPVLDSDGSFFLVSKLTVDKSRWQQGNVFSCSVMHEALHNHYTQKSLSLSPG
Kd (human TL1A (HuTL1A) [3]): 5.25 nM
koff (human TL1A (HuTL1A) [3]): 0.00306 s⁻¹
kon (human TL1A (HuTL1A) [3]): 582000 M⁻¹ s⁻¹
Kd (human TL1A (HuTL1A) [4]): 5.68 nM
koff (human TL1A (HuTL1A) [4]): 0.00346 s⁻¹
kon (human TL1A (HuTL1A) [4]): 610000 M⁻¹ s⁻¹
Kd [5]: 5.75 nM
koff [5]: 0.0036 s⁻¹
kon [5]: 626000 M⁻¹ s⁻¹
EC50 (read off the curve) (human TL1A (HuTL1A) [6]): ~0.5 nM
EC50 (read off the curve) (human TL1A (HuTL1A) [7]): ~0.5 nM

B4: single-arm antibody 3672 (antibody, human IgG1, kappa, L234A L235A)
heavy: ELQLQESGPGLVKPSETLSLTCAVSGLSFTDFYWAWIRQPPGKGLEWIGEINHKGNTSYNPSLKSRVTVSIDTSKNQFSLKLSSVTAADTAVYFCARDFPNYTFDFWGQGTLVTVSSASTKGPSVFPLAPSSKSTSGGTAALGCLVKDYFPEPVTVSWNSGALTSGVHTFPAVLQSSGLYSLSSVVTVPSSSLGTQTYICNVNHKPSNTKVDKKVEPKSCDKTHTCPPCPAPEAAGGPSVFLFPPKPKDTLMISRTPEVTCVVVDVSHEDPEVKFNWYVDGVEVHNAKTKPREEQYNSTYRVVSVLTVLHQDWLNGKEYKCKVSNKALGAPIEKTISKAKGQPREPQVYTLPPCREEMTKNQVSLWCLVKGFYPSDIAVEWESNGQPENNYKTTPPVLDSDGSFFLYSKLTVDKSRWQQGNVFSCSVMHEALHNHYTQKSLSLSPG
light: not shown
chain: B3 chain
notes: also called M701-3672
EC50 (read off the curve) (human TL1A (HuTL1A) [6]): ~3 nM
EC50 (read off the curve) (human TL1A (HuTL1A) [7]): ~3 nM

B5: M701-3912 (antibody, human IgG1, kappa, L234A L235A, V domains shown)
VH: ELQLQESGPGLVKPSETLSLTCAVSGISFNDFHWAWIRQPPGKGLEWIGDINHRGHTSYNPSLKSRVTVSVDTSKNQFSLKLSSVTAADTAVYYCARDYPNFTFDLWGQGTLVTVSS
VL: DIQMTQSPATLSLSPGERATLSCRASQSVSTYLAWYQQKPGQAPRLLIYGASRRATGIPARFSGSGSGTDFTLTISSLQSEDFAVYYCQQYGDTPLTFGQGTKVEIKR
notes: Fc-engineered IgG1
Ave Z-dia (nm) of the antigen-antibody complex (human TL1A (HuTL1A) [1]): 18.5 nm
